Assay results reported in publication PMC3377666.

What was measured:
[1] = molecular target: recombinant human Pol δ core dimer (p125/p50) (human) (UniProt P28340)
[2] = molecular target: recombinant human Pol δ core+p12 trimer (p125/p50/p12) (human) (UniProt P28340)
[3] = molecular target: recombinant human Pol δ core+p68 trimer (p125/p50/p68) (human) (UniProt P28340)
[4] = molecular target: recombinant human Pol δ holoenzyme (heterotetramer p125/p50/p68/p12) (human) (UniProt P28340)
Chain of recombinant human Pol δ holoenzyme (heterotetramer p125/p50/p68/p12) (human) (P28340 whole entry, stated change not applied, chain 1 of 4): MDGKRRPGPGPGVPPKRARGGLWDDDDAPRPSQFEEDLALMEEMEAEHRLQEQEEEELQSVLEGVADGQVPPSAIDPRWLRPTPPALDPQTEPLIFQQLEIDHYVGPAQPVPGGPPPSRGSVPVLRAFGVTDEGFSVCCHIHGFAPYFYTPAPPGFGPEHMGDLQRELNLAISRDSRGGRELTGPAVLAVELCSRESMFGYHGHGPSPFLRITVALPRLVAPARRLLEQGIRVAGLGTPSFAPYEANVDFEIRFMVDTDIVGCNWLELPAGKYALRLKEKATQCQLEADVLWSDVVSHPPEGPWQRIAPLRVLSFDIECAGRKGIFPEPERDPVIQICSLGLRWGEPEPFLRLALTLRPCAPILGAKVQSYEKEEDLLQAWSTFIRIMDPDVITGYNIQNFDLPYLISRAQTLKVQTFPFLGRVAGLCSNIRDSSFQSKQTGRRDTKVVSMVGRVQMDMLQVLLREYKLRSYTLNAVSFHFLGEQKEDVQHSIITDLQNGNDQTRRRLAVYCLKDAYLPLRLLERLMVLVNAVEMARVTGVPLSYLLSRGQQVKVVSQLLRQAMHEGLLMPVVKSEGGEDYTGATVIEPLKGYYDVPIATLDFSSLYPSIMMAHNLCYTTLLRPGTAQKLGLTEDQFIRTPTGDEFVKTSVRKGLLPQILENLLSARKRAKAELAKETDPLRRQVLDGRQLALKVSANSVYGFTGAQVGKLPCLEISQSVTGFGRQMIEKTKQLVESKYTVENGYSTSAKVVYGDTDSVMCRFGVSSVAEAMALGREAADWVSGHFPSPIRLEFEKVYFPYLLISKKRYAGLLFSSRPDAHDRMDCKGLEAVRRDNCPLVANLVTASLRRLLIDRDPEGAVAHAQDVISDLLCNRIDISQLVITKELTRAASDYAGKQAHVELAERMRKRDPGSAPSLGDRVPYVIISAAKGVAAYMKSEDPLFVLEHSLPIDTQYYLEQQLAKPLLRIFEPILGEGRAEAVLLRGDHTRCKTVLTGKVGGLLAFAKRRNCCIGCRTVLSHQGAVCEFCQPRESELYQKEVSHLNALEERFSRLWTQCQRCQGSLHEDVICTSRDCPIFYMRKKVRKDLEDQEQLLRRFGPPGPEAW
Chain of recombinant human Pol δ holoenzyme (heterotetramer p125/p50/p68/p12) (human) (P49005 whole entry, stated change not applied, chain 2 of 4, further chain): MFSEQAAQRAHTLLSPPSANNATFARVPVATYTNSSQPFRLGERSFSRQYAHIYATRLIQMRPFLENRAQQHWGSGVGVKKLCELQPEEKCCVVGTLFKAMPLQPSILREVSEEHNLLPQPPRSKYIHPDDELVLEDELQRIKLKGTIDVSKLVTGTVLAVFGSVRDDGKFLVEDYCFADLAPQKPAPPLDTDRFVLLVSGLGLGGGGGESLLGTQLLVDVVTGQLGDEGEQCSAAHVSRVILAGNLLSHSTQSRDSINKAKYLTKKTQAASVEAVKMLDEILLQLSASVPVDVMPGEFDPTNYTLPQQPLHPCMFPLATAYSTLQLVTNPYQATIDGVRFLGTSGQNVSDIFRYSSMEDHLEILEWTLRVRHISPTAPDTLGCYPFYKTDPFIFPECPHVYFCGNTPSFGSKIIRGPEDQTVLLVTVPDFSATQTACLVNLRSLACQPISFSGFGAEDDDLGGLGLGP
Chain of recombinant human Pol δ holoenzyme (heterotetramer p125/p50/p68/p12) (human) (Q15054 whole entry, stated change not applied, chain 3 of 4, further chain): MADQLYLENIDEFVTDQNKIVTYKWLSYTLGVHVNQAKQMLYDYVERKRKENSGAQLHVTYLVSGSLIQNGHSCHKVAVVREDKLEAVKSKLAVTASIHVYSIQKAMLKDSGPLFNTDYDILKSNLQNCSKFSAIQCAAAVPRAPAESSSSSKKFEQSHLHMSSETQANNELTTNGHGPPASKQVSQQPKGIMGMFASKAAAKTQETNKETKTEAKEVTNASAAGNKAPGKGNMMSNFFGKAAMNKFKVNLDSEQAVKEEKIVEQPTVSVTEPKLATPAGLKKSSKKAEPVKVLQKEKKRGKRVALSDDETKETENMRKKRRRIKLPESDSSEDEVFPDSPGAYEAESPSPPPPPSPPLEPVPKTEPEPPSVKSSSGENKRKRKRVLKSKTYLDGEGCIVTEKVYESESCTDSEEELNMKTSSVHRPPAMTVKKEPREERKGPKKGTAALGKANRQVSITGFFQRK
Chain of recombinant human Pol δ holoenzyme (heterotetramer p125/p50/p68/p12) (human) (Q9HCU8 whole entry, stated change not applied, chain 4 of 4, further chain): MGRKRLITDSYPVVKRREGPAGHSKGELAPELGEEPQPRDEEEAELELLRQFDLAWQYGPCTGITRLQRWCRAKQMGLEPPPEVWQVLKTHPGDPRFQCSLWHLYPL

Chain of recombinant human PCNA (Proliferating Cell Nuclear Antigen) (P12004 whole entry): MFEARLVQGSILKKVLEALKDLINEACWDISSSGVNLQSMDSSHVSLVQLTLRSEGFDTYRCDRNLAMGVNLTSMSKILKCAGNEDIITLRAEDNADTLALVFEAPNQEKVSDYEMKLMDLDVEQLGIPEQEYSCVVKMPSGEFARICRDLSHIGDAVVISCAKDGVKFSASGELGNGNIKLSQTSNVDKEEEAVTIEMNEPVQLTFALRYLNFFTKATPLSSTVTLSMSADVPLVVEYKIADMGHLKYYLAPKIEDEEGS
Chain of recombinant human Pol δ core+p68 trimer (p125/p50/p68) (human) (P28340 whole entry, stated change not applied, chain 1 of 3): as the sequence (P28340 whole entry, stated change not applied, chain 1 of 4) above
Chain of recombinant human Pol δ core+p68 trimer (p125/p50/p68) (human) (P49005 whole entry, stated change not applied, chain 2 of 3, further chain): as the sequence (P49005 whole entry, stated change not applied, chain 2 of 4, further chain) above
Chain of recombinant human Pol δ core+p68 trimer (p125/p50/p68) (human) (Q15054 whole entry, stated change not applied, chain 3 of 3, further chain): as the sequence (Q15054 whole entry, stated change not applied, chain 3 of 4, further chain) above
Chain of recombinant human Pol δ core+p12 trimer (p125/p50/p12) (human) (P28340 whole entry, stated change not applied, chain 1 of 3): as the sequence (P28340 whole entry, stated change not applied, chain 1 of 4) above
Chain of recombinant human Pol δ core+p12 trimer (p125/p50/p12) (human) (P49005 whole entry, stated change not applied, chain 2 of 3, further chain): as the sequence (P49005 whole entry, stated change not applied, chain 2 of 4, further chain) above
Chain of recombinant human Pol δ core+p12 trimer (p125/p50/p12) (human) (Q9HCU8 whole entry, stated change not applied, chain 3 of 3, further chain): as the sequence (Q9HCU8 whole entry, stated change not applied, chain 4 of 4, further chain) above
Chain of recombinant human Pol δ core dimer (p125/p50) (human) (P28340 whole entry, stated change not applied, chain 1 of 2): as the sequence (P28340 whole entry, stated change not applied, chain 1 of 4) above
Chain of recombinant human Pol δ core dimer (p125/p50) (human) (P49005 whole entry, stated change not applied, chain 2 of 2, further chain): as the sequence (P49005 whole entry, stated change not applied, chain 2 of 4, further chain) above

Substance: recombinant human PCNA (Proliferating Cell Nuclear Antigen) (from UniProt P12004 1-261) (natural protein)
- apparent Kd for PCNA: PCNA concentration for half-maximal stimulation of polymerase activity on poly(dA)/oligo(dT), hyperbolic fit [1]: 73 nM trimer
- apparent Kd for PCNA: PCNA concentration for half-maximal stimulation of polymerase activity on poly(dA)/oligo(dT), hyperbolic fit [2]: 8.7 nM trimer
- apparent Kd for PCNA: PCNA concentration for half-maximal stimulation of polymerase activity on poly(dA)/oligo(dT), hyperbolic fit [3]: 9.3 nM trimer
- apparent Kd for PCNA: PCNA concentration for half-maximal stimulation of polymerase activity on poly(dA)/oligo(dT), hyperbolic fit [4]: 7.1 nM trimer
